Data from patent US20240344241A1, “PROTEINACEOUS MOLECULES AND USES THEREFOR” (THE UNIVERSITY OF QUEENSLAND, priority 2021, published 2024).
Read-outs that look alike come from different tables or passages of the source. Ends that are not written are not given here.

T1: recombinant human matriptase (human), Q9Y5Y6
T1 chain: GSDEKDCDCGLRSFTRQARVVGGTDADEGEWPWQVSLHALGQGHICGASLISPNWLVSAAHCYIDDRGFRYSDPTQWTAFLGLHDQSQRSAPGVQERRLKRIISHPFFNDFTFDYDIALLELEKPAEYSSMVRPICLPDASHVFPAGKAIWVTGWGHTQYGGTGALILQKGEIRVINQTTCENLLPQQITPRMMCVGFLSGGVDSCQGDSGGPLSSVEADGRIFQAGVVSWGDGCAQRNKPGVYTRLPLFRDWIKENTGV

T2: FXIIa in human plasma (generated by kaolin activation of FXII in aPTT assays) (human), P00748
T2 chain: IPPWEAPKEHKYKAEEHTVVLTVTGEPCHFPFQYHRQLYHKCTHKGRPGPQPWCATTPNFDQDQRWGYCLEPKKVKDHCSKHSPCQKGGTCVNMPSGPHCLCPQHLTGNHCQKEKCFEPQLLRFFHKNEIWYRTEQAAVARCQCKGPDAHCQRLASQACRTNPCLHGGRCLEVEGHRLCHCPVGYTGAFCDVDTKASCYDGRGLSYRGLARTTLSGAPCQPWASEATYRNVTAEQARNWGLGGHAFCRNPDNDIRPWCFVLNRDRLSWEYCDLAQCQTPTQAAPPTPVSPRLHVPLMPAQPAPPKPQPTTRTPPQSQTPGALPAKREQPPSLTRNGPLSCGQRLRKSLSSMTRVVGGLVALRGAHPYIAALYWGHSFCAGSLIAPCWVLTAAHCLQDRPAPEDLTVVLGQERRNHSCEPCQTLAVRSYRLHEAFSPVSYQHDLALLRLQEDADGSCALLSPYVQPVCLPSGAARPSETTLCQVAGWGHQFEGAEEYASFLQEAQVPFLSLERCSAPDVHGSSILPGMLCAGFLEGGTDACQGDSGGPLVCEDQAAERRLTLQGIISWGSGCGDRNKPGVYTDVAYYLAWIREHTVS

T3: human β-factor XIIa (human), P00748
T3 chain 1: NGPLSCGQR
T3 chain 2: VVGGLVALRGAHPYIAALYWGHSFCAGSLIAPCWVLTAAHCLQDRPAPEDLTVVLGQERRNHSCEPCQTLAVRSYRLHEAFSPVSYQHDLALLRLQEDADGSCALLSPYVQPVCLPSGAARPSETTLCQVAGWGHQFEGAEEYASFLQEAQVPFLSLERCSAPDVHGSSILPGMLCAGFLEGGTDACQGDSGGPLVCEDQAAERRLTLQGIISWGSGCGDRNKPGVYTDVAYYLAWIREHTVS

T4: kallikrein-related peptidase 4 (KLK4), Q9Y5K2
T4 chain: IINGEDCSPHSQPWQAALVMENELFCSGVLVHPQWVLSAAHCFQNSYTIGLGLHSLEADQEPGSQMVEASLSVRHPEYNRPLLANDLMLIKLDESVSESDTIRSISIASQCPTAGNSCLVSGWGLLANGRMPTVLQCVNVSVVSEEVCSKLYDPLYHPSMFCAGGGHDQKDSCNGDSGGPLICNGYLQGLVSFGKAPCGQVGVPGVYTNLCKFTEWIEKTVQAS


Key:
[1] = molecular target: human cationic trypsin (human), P07477; experiment: competitive protease inhibition assay (selectivity panel), human trypsin, Boc-VPR-MCA
[2] = molecular target: T1, recombinant human matriptase (human), …; experiment: competitive protease inhibition assay (selectivity panel), human matriptase, Boc-QAR-MCA
[3] = molecular target: T2, FXIIa in human plasma (generated by …); experiment: cell-based or functional assay
[4] = molecular target: T3, human β-factor XIIa (human), P00748; experiment: competitive protease inhibition assay, Ac-QRFR-pNA substrate, Morrison Ki
[5] = molecular target: T3, human β-factor XIIa (human), P00748; experiment: mRNA display affinity selection on bead-immobilised biotinylated human β-FXIIa, NGS; share of the sequence in the recovered library; peptide displayed as acyclic mRNA fusion
[6] = molecular target: T3, human β-factor XIIa (human), P00748; experiment: SPR (Biacore T200), biotinylated human β-FXIIa captured on chip, peptide as analyte, 1:1 model
[7] = molecular target: bovine trypsin (bovine), P00760; experiment: SPR, bovine trypsin
[8] = molecular target: T3, human β-factor XIIa (human), P00748; experiment: SPR (Biacore T200), biotinylated human β-FXIIa captured on chip, peptide as analyte, 1:1 model
[9] = molecular target: T4, kallikrein-related peptidase 4 (KLK4), …; experiment: competitive inhibition assay with peptide substrate
[10] = molecular target: T3, human β-factor XIIa (human), P00748; experiment: as above
[11] = molecular target: T1, recombinant human matriptase (human), …; experiment: as above
[12] = molecular target: human cationic trypsin (human), P07477; experiment: as above
[13] = molecular target: T3, human β-factor XIIa (human), P00748; experiment: mRNA display affinity selection on bead-immobilised biotinylated human β-FXIIa, NGS; share of the sequence in the recovered library
[14] = molecular target: bovine trypsin (bovine), P00760; experiment: SPR, ratio of KD values
[15] = molecular target: T3, human β-factor XIIa (human), P00748; experiment: SPR, ratio of KD values
[16] = molecular target: T3, human β-factor XIIa (human), P00748; experiment: competitive protease inhibition assay, ratio of Ki values
[17] = molecular target: T3, human β-factor XIIa (human), P00748; experiment: competitive protease inhibition assay, 0.5 nM FXIIa, Boc-QGR-MCA substrate
[18] = molecular target: T3, human β-factor XIIa (human), P00748; experiment: competitive protease inhibition assay

Sequence of bovine trypsin (bovine), P00760 (P00760 24-246): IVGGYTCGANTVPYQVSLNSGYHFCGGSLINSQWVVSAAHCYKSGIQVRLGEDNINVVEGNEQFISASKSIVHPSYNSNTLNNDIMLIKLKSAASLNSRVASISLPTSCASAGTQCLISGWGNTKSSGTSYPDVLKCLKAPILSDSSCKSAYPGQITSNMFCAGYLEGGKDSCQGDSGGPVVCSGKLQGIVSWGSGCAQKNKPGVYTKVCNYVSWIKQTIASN

Binder	Ki [4]	Kd [6]	Kd [7]	Kd [8]	Ki [17]	other results
DGGICPRIGRLCRRDSDCPGACICRGNGYCGSGS (modifications not checked) [cMCoTI-fxL1]	0.69 nM					Ki [1]: 996 nM; Ki [2]: 2210 nM; EC2× (inhibitor concentration that doubles the clotting time), aPTT assay in human plasma [3]: 500 nM
DGGICPRILVYCRRDSDCPGACICIRRTYCGSGS (modifications not checked) [MCoFx2 acyclic]	73 nM	45 nM	< 0.1 nM	45.4 nM		Population (%) [5]: 19.8%
DGGICPRILVYCRRDSDCPGACICIRRTYCGSGS (modifications not checked) [MCoFx2 cyclic]	12 nM		< 0.1 nM	10 nM		
RVCPRILKKCRRDSDCPGACICRGNGYCG (modifications not checked) [acyclic MCoTI-II variant M]						Ki [9]: 0.07 nM; Ki [10]: 3.3 nM; Ki [11]: 0.4 nM; Ki [12]: 0.4 nM
DGGVCPRVGWRCRRDSDCPGACICYPTKWCGSGS (modifications not checked) [MCoFx4 acyclic]	17 nM	74 nM	15.1 nM	73.8 nM		Population (%) [5]: 2.3%
DGGVCPRVGWRCRRDSDCPGACICYPTKWCGSGS (modifications not checked) [MCoFx4 cyclic]	5.5 nM	14 nM	4.09 nM	14.4 nM		
MDGGICPRIGRLCRRDSDCPGACICRATRFCGSGSGS (modifications not checked) [MCoFx1, mRNA display selected sequence (parent of the saturation mutagenesis library)]						Population (%) [13]: 20.7%
DGGVCPKILKKCRRDSDCPGACICRGNGYCGSGS (modifications not checked) [MCoTI-II (Momordica cochinchinensis trypsin inhibitor-II), chemically synthesized, cyclic]		58 nM	< 0.1 nM			
DGGRCCGGYLVCRRDSDCPGACICVFKKHCGSGS (modifications not checked) [MCoFx5 acyclic]	106 nM	23 nM				Population (%) [5]: 0.8%
DGGRCCGGYLVCRRDSDCPGACICVFKKHCGSGS (modifications not checked) [MCoFx5 cyclic]	207 nM	82 nM		81.8 nM		
DGGICPRIGRLCRRDSDCPGACICRATRFCGSGY (modifications not checked) [MCoFx1 cyclic]	0.37 nM		31.5 nM	0.9 nM		fold lower affinity than MCoTI-II [14]: 300 fold; fold higher affinity than MCoTI-II [15]: 60 fold; fold more potent than MCoTI-II [16]: 350 fold; Ki [1]: 1110 nM; Ki [2]: 9120 nM; EC2× (inhibitor concentration that doubles the clotting time), aPTT assay in human plasma [3]: 702 nM
DGGICPRIGRLCRRDSDCPGACICRATRFCGSGY (modifications not checked) [MCoFx1 acyclic]	0.73 nM	1.9 nM	59.6 nM	1.89 nM		
DGGRCPRLLRWCRRDSDCPGACICARGGLCGSGS (modifications not checked) [MCoFx3 acyclic]	525 nM	167 nM	2.39 nM			Population (%) [5]: 2.3%
DGGRCPRLLRWCRRDSDCPGACICARGGLCGSGS (modifications not checked) [MCoFx3 cyclic]	75 nM	23 nM	2.72 nM	22.8 nM		
GGICPRIGRLCRRDSDCPGACICRATGFCGSGSD (not fully specified (bridges); cysteine pairing not given here) [Cyclic [R27G]MCoFx7]					0.21 nM	fold loss in activity against cyclic MCoFx7 [16]: 3.2 fold
GGICPRIGRLCERDSDCPGACICRATRFCGSGSD (not fully specified (bridges); cysteine pairing not given here) [Cyclic [R12E]MCoFx7]					0.13 nM	fold weaker activity than cyclic MCoFx7 [16]: 2 fold
GGICPRIGRLCVRDSDCPGACICRATRFCGSGSD (not fully specified (bridges); cysteine pairing not given here) [Cyclic [R12V]MCoFx7]					0.069 nM	
GGICPRIGRLCRRDSDCPGACICRATRFCGSGSD (modifications not checked) [Cyclic MCoFx7]					0.064 nM	
GGICPRIGRLCRRDSDCPGACICRATRFCGSGSP (not fully specified (bridges); cysteine pairing not given here) [Cyclic [D34P]MCoFx7]					0.091 nM	
GGICPRIGRLCRRDSDCPGACICRPTRFCGSGSD (not fully specified (bridges); cysteine pairing not given here) [Cyclic [A25P]MCoFx7]					0.093 nM	
GGICPRIGRLCRRDSDCPGACICRKTRFCGSGSD (not fully specified (bridges); cysteine pairing not given here) [Cyclic [A25K]MCoFx7]					0.046 nM	
GGICPRIGRLCRRDSDCPGACICRATHFCGSGSD (not fully specified (bridges); cysteine pairing not given here) [Cyclic [R27H]MCoFx7]					0.12 nM	fold loss in activity against cyclic MCoFx7 [16]: 2 fold
GGICPRIGRLCRKDSDCPGACICRATRFCGSGSD (not fully specified (bridges); cysteine pairing not given here) [Cyclic [R13K]MCoFx7]					0.068 nM	
GGICPRIGRLCTRDSDCPGACICRATRFCGSGSD (not fully specified (bridges); cysteine pairing not given here) [Cyclic [R12T]MCoFx7]					0.065 nM	
RICPRIGRLCRRDSDCPGACICRATRFCG (modifications not checked) [acyclic variant of MCoFx1 based on a minimized knottin scaffold (29 amino acids)]						Ki [18]: 1.4 nM
